According to the supplement of paper PMC9112550, “Optimization of the antimicrobial peptide Bac7 by deep mutational scanning” (BMC Biology, 2022):

What follows are sequences tested on Escherichia coli TOP10 (assay: shrunken log2 fold change of peptide-encoding DNA abundance (4.5 h post-induction vs induction); higher = less antimicrobial activity (less host growth inhibition)). Conditions: time post-induction: 4.5 h; library: site-saturation at positions 5, 18, 19, 20.
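Note: peptides expressed intracellularly from a pBAD plasmid library in pooled LB shake-flask culture, induced with 0.3% L-arabinose, DNA abundance read by NGS, three biological replicates, DESeq2 with apeglm shrinkage.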

Sequence	shrunken log2 fold change
RRIRWRPPRLPRPRPRPTYSPRP	-0.163
RRIRMRPPRLPRPRPRPQFAPRP	0.0822
RRIRARPPRLPRPRPRPMKIPRP	0.275
RRIRMRPPRLPRPRPRPNDHPRP	-0.0869
RRIRSRPPRLPRPRPRPGFVPRP	0.287
RRIRFRPPRLPRPRPRPCCKPRP	-0.00992
RRIRTRPPRLPRPRPRPMIMPRP	-0.437
RRIRHRPPRLPRPRPRPIPPPRP	-0.0356
RRIRLRPPRLPRPRPRPMGTPRP	-0.0465
RRIRYRPPRLPRPRPRPFFTPRP	-0.675
RRIRCRPPRLPRPRPRPFEKPRP	-0.0689
RRIRFRPPRLPRPRPRPMAKPRP	-0.0311
RRIRVRPPRLPRPRPRPNIMPRP	-0.512
RRIRQRPPRLPRPRPRPKRKPRP	0.684
RRIRDRPPRLPRPRPRPGWGPRP	0.687
RRIRYRPPRLPRPRPRPQGDPRP	-0.074
RRIRCRPPRLPRPRPRPTREPRP	0.684
RRIRYRPPRLPRPRPRPHTRPRP	-0.494
RRIRVRPPRLPRPRPRPTRQPRP	0.0865
RRIRTRPPRLPRPRPRPTVMPRP	-0.152
RRIRTRPPRLPRPRPRPAGNPRP	0.00723
RRIRHRPPRLPRPRPRPSRHPRP	1.6
RRIRARPPRLPRPRPRPQLEPRP	0.63
RRIRGRPPRLPRPRPRPLMDPRP	1.04
RRIRFRPPRLPRPRPRPAPKPRP	0.379

Sequence	shrunken log2 fold change
RRIRIRPPRLPRPRPRPQWPPRP	0.238
RRIRSRPPRLPRPRPRPVGWPRP	0.839
RRIRCRPPRLPRPRPRPIVFPRP	-0.31
RRIRYRPPRLPRPRPRPVCNPRP	-0.649
RRIRSRPPRLPRPRPRPEATPRP	0.72
RRIRARPPRLPRPRPRPELSPRP	0.0862
RRIRQRPPRLPRPRPRPIWVPRP	-0.344
RRIRCRPPRLPRPRPRPVGAPRP	0.622
RRIRGRPPRLPRPRPRPGVNPRP	0.075
RRIRWRPPRLPRPRPRPRIPPRP	0.0219
RRIRGRPPRLPRPRPRPFEPPRP	0.267
RRIRLRPPRLPRPRPRPTACPRP	-0.0054
RRIRFRPPRLPRPRPRPVSMPRP	0.174
RRIRTRPPRLPRPRPRPMSTPRP	-0.0153
RRIRKRPPRLPRPRPRPEHWPRP	0.428
RRIRERPPRLPRPRPRPGCTPRP	-0.169
RRIRIRPPRLPRPRPRPIGAPRP	-0.0926
RRIRERPPRLPRPRPRPHDKPRP	-0.784
RRIRVRPPRLPRPRPRPYEVPRP	0.0284
RRIRARPPRLPRPRPRPKWYPRP	0.056
RRIRIRPPRLPRPRPRPLATPRP	-0.0671
RRIRKRPPRLPRPRPRPFMMPRP	-0.1
RRIRARPPRLPRPRPRPVMMPRP	0.0914
RRIRERPPRLPRPRPRPEWPPRP	0.102
RRIRQRPPRLPRPRPRPSIHPRP	-0.451

Sequence	shrunken log2 fold change
RRIRHRPPRLPRPRPRPIRKPRP	-0.583
RRIRPRPPRLPRPRPRPNNFPRP	-0.364
RRIRTRPPRLPRPRPRPRFWPRP	0.0622
RRIRGRPPRLPRPRPRPADWPRP	1.03
RRIRRRPPRLPRPRPRPRPFPRP	0.699
RRIRTRPPRLPRPRPRPISYPRP	0.061
RRIRPRPPRLPRPRPRPKYCPRP	-0.91
RRIRIRPPRLPRPRPRPFGHPRP	-0.272
RRIRVRPPRLPRPRPRPMRSPRP	0.604
RRIRGRPPRLPRPRPRPGNFPRP	-0.00767
RRIRGRPPRLPRPRPRPQIDPRP	0.565
RRIRCRPPRLPRPRPRPWTEPRP	-0.755
RRIRIRPPRLPRPRPRPSEYPRP	-0.0435
RRIRNRPPRLPRPRPRPMSTPRP	-0.0292
RRIRKRPPRLPRPRPRPFQLPRP	0.0661
RRIRNRPPRLPRPRPRPCMSPRP	-0.108
RRIRQRPPRLPRPRPRPDPDPRP	-0.00136
RRIRPRPPRLPRPRPRPWHRPRP	-0.156
RRIRLRPPRLPRPRPRPKKRPRP	0.277
RRIRIRPPRLPRPRPRPKIHPRP	-0.464
RRIRPRPPRLPRPRPRPYNYPRP	-0.446
RRIRPRPPRLPRPRPRPQSTPRP	-0.136
RRIRIRPPRLPRPRPRPKSHPRP	-0.451
RRIRERPPRLPRPRPRPIEFPRP	0.101
RRIRSRPPRLPRPRPRPNPYPRP	-0.558

Sequence	shrunken log2 fold change
RRIRARPPRLPRPRPRPCLYPRP	0.137
RRIRKRPPRLPRPRPRPHTCPRP	0.00412
RRIRTRPPRLPRPRPRPCMSPRP	-0.196
RRIRARPPRLPRPRPRPKQAPRP	0.147
RRIRWRPPRLPRPRPRPAYDPRP	0.126
RRIRARPPRLPRPRPRPPWQPRP	0.675
RRIRMRPPRLPRPRPRPAFGPRP	1.05
RRIRERPPRLPRPRPRPKCDPRP	0.175
RRIRTRPPRLPRPRPRPSKEPRP	-0.598
RRIRGRPPRLPRPRPRPNYCPRP	0.00136
RRIRIRPPRLPRPRPRPDYCPRP	-0.163
RRIRVRPPRLPRPRPRPVIFPRP	-0.0885
RRIRDRPPRLPRPRPRPQHKPRP	-0.217
RRIRERPPRLPRPRPRPWYFPRP	-0.171
RRIRIRPPRLPRPRPRPDLEPRP	-0.0323
RRIRERPPRLPRPRPRPYCEPRP	-0.0402
RRIRCRPPRLPRPRPRPKTDPRP	-0.0884
RRIRVRPPRLPRPRPRPRFFPRP	0.287
RRIRRRPPRLPRPRPRPYERPRP	-0.18
RRIRPRPPRLPRPRPRPLDHPRP	-0.114
RRIRFRPPRLPRPRPRPKWRPRP	0.413
RRIRARPPRLPRPRPRPKYEPRP	0.13
RRIRTRPPRLPRPRPRPQWQPRP	0.0822
RRIRQRPPRLPRPRPRPITNPRP	-0.158
RRIRERPPRLPRPRPRPNRDPRP	-0.192

Sequence	shrunken log2 fold change
RRIRDRPPRLPRPRPRPLAYPRP	0.0112
RRIRHRPPRLPRPRPRPCTHPRP	-0.192
RRIRYRPPRLPRPRPRPRNCPRP	-0.234
RRIRYRPPRLPRPRPRPSVIPRP	-0.616
RRIRHRPPRLPRPRPRPHMLPRP	-0.0874
RRIRNRPPRLPRPRPRPSMIPRP	-0.427
RRIRNRPPRLPRPRPRPPACPRP	0.301
RRIRLRPPRLPRPRPRPLRDPRP	0.356
RRIRQRPPRLPRPRPRPLLEPRP	0.105
RRIRHRPPRLPRPRPRPINEPRP	-0.99
RRIRERPPRLPRPRPRPMGEPRP	-0.00192
RRIRARPPRLPRPRPRPKMDPRP	0.384
RRIRPRPPRLPRPRPRPPNYPRP	-0.0609
RRIRMRPPRLPRPRPRPQMLPRP	0.186
RRIRRRPPRLPRPRPRPRCSPRP	0.152
RRIRTRPPRLPRPRPRPQQPPRP	0.153
RRIRCRPPRLPRPRPRPVLTPRP	-0.191
RRIRHRPPRLPRPRPRPKLDPRP	0.225
RRIRARPPRLPRPRPRPNLGPRP	0.0306
RRIRWRPPRLPRPRPRPYDLPRP	-0.021
RRIRNRPPRLPRPRPRPHAKPRP	-0.0658
RRIRNRPPRLPRPRPRPQPCPRP	0.0582
RRIRVRPPRLPRPRPRPEICPRP	0.2
RRIRQRPPRLPRPRPRPHYKPRP	-1.18
RRIRFRPPRLPRPRPRPELMPRP	0.179
